The target of test [1] is T1, FcγRIIb extracellular domain with C-terminal His tag (human, UniProt P31994 43-217).
T1 construct: extracellular domain; also called FcgRIIb
T1 sequence (looked up): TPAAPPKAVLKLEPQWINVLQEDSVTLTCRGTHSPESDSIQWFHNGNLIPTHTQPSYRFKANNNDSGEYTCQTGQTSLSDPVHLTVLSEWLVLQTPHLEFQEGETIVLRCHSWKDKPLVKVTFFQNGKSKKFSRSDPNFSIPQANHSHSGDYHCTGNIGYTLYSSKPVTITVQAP
The experiment in a line: SPR, captured antibody, FcgR analyte.
Procedure: (§1) Relative binding activities were calculated for the results of analyzing interactions with the respective FcγRs according to the following method.

The target in test [2] is T2, FcγRIa extracellular domain with C-terminal His tag (human, UniProt P12314 16-292).
T2 construct: also called FcgRIa
T2 sequence (P12314 16-292): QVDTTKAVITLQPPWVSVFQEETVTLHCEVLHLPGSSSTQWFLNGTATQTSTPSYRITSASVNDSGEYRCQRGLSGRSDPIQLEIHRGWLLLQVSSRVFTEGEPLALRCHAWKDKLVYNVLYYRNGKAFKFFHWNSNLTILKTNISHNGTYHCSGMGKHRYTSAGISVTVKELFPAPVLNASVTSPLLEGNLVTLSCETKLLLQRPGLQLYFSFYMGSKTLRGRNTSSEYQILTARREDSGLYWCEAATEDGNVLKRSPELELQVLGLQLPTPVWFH
In words: SPR, captured antibody, FcgR analyte. In general terms: Surface plasmon resonance follows binding to a sensor surface in real time, without labels.
Procedure: as §1

Another test has as its target T3, FcγRIIa type R (human, UniProt P12318 34-217).
T3 chain: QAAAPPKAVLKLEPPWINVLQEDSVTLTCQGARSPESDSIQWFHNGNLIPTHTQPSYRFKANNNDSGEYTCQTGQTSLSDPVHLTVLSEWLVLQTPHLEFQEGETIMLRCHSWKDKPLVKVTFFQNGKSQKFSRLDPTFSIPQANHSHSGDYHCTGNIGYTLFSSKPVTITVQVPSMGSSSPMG
The experiment in a line: SPR (Biacore), captured antibody, soluble FcγR.

The target of the next test is T4, FcγRIIb (human, UniProt P31994 43-217).
T4 construct: extracellular domain; also called FcgRIIb; CD32B
T4 sequence (looked up): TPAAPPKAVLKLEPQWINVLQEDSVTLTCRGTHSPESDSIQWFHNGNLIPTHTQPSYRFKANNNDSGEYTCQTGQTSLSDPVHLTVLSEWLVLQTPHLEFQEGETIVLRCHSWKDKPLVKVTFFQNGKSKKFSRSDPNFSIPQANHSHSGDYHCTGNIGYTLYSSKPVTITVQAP
The experiment in a line: SPR (Biacore), captured antibody, soluble FcγR.

For another test, the target named is T5, FcγRIa (human, UniProt P12314 16-292).
T5 construct: Whole entry named; also called FcgRIa; CD64A
T5 sequence (P12314 16-292): as the sequence (P12314 16-292) above
The experiment in a line: SPR (Biacore), captured antibody, soluble FcγR.

As usually defined, the Kd is a measure of binding affinity in units of concentration.

B1: IL6R-BP184/IL6R-L (antibody, human IgG1, kappa)
heavy: QVQLQESGPGLVKPSETLSLTCAVSGHSISHDHAWSWVRQPPGEGLEWIGFISYSGITNYNPSLQGRVTISRDNSKNTLYLQMNSLRAEDTAVYYCARSLARTTAMDYWGEGTLVTVSSASTKGPSVFPLAPSSKSTSGGTAALGCLVKDYFPEPVTVSWNSGALTSGVHTFPAVLQSSGLYSLSSVVTVPSSSLGTQTYICNVNHKPSNTKVDKKVEPKSCDKTHTCPPCPAPDLLGGDSVFLFPPKPKDTLMISRTPEVTCVVVDVSHEDGEVKFNWYVDGVEVHNAKTKPREEQYNSTYRVVSVLTVLHQDWLNGKEYKCKVSNKALPKPIEKTISKAKGQPREPQVYTLPPSRDELTKNQVSLTCLVKGFYPSDIAVEWESNGQPENNYKTTPPVLDSDGSFFLYSKLTVDKSRWQQGNVFSCSVMHEALHNHYTQESLSLSP
light: not shown
With B1, the relative binding activity in test [1] was 171 relative (IL6R-BF648/IL6R-L = 100); in test [2], 96 relative (IL6R-BF648/IL6R-L = 100).

B2: IL6R-BP204/IL6R-L (antibody, human IgG1, kappa)
heavy: QVQLQESGPGLVKPSETLSLTCAVSGHSISHDHAWSWVRQPPGEGLEWIGFISYSGITNYNPSLQGRVTISRDNSKNTLYLQMNSLRAEDTAVYYCARSLARTTAMDYWGEGTLVTVSSASTKGPSVFPLAPSSKSTSGGTAALGCLVKDYFPEPVTVSWNSGALTSGVHTFPAVLQSSGLYSLSSVVTVPSSSLGTQTYICNVNHKPSNTKVDKKVEPKSCDKTHTCPPCPAPDLLGGDSVFLFPPKPKDTLMISRTPEVTCVVVDVSHEDGEVKFNWYVDGVEVHNAKTKPREEQYNSTYRVVSVLTVLHQDWLNGKEYKCKVSNAALPRPIEKTISKAKGQPREPQVYTLPPSRDELTKNQVSLTCLVKGFYPSDIAVEWESNGQPENNYKTTPPVLDSDGSFFLYSKLTVDKSRWQQGNVFSCSVMHEALHNHYTQESLSLSP
light: not shown
Regarding B2, the relative binding activity was 165 relative (IL6R-BF648/IL6R-L = 100) in test [1] and 110 relative (IL6R-BF648/IL6R-L = 100) in test [2].

B3: IL6R-BP205/IL6R-L (antibody, human IgG1, kappa)
heavy: QVQLQESGPGLVKPSETLSLTCAVSGHSISHDHAWSWVRQPPGEGLEWIGFISYSGITNYNPSLQGRVTISRDNSKNTLYLQMNSLRAEDTAVYYCARSLARTTAMDYWGEGTLVTVSSASTKGPSVFPLAPSSKSTSGGTAALGCLVKDYFPEPVTVSWNSGALTSGVHTFPAVLQSSGLYSLSSVVTVPSSSLGTQTYICNVNHKPSNTKVDKKVEPKSCDKTHTCPPCPAPDLLGGDSVFLFPPKPKDTLMISRTPEVTCVVVDVSHEDGEVKFNWYVDGVEVHNAKTKPREEQDNSTYRVVSVLTVLHQDWLNGKEYKCKVSNKALPRPIEKTISKAKGQPREPQVYTLPPSRDELTKNQVSLTCLVKGFYPSDIAVEWESNGQPENNYKTTPPVLDSDGSFFLYSKLTVDKSRWQQGNVFSCSVMHEALHNHYTQESLSLSP
light: not shown
Take B3: the relative binding activity in test [1] is 167 relative (IL6R-BF648/IL6R-L = 100); in test [2], 97 relative (IL6R-BF648/IL6R-L = 100).

B4: IL6R-BP192/IL6R-L (antibody, human IgG1, kappa)
heavy: QVQLQESGPGLVKPSETLSLTCAVSGHSISHDHAWSWVRQPPGEGLEWIGFISYSGITNYNPSLQGRVTISRDNSKNTLYLQMNSLRAEDTAVYYCARSLARTTAMDYWGEGTLVTVSSASTKGPSVFPLAPSSKSTSGGTAALGCLVKDYFPEPVTVSWNSGALTSGVHTFPAVLQSSGLYSLSSVVTVPSSSLGTQTYICNVNHKPSNTKVDKKVEPKSCDKTHTCPPCPAPDLLGGDSVFLFPPKPKDTLMISRTPEVTCVVVDVSDEDGEVKFNWYVDGVEVHNAKTKPREEQDNSTYRVVSVLTVLHQDWLNGKEYKCKVSNKALPKPIEKTISKAKGQPREPQVYTLPPSRDELTKNQVSLTCLVKGFYPSDIAVEWESNGQPENNYKTTPPVLDSDGSFFLYSKLTVDKSRWQQGNVFSCSVMHEALHNHYTQESLSLSP
light: not shown
For B4, the values for the relative binding activity in test [1] and in test [2] were 172 relative (IL6R-BF648/IL6R-L = 100) and 109 relative (IL6R-BF648/IL6R-L = 100), respectively.

B5: IL6R-BP193/IL6R-L (antibody, human IgG1, kappa)
heavy: QVQLQESGPGLVKPSETLSLTCAVSGHSISHDHAWSWVRQPPGEGLEWIGFISYSGITNYNPSLQGRVTISRDNSKNTLYLQMNSLRAEDTAVYYCARSLARTTAMDYWGEGTLVTVSSASTKGPSVFPLAPSSKSTSGGTAALGCLVKDYFPEPVTVSWNSGALTSGVHTFPAVLQSSGLYSLSSVVTVPSSSLGTQTYICNVNHKPSNTKVDKKVEPKSCDKTHTCPPCPAPDLLGGDSVFLFPPKPKDTLMISRTPEVTCVVVDVSDEDGEVKFNWYVDGVEVHNAKTKPREEQYNSTYRVVSVLTVLHQDWLNGKEYKCKVSNKALPKPIEKTISKAKGQPREPQVYTLPPSRDELTKNQVSLTCLVKGFYPSDIAVEWESNGQPENNYKTTPPVLDSDGSFFLYSKLTVDKSRWQQGNVFSCSVMHEALHNHYTQESLSLSP
light: not shown
For the molecule B5, the relative binding activity in test [1] was 173 relative (IL6R-BF648/IL6R-L = 100); in test [2] it was 113 relative (IL6R-BF648/IL6R-L = 100).

B6: IL6R-BP557/IL6R-L (antibody, human IgG1, kappa)
heavy: QVQLQESGPGLVKPSETLSLTCAVSGHSISHDHAWSWVRQPPGEGLEWIGFISYSGITNYNPSLQGRVTISRDNSKNTLYLQMNSLRAEDTAVYYCARSLARTTAMDYWGEGTLVTVSSASTKGPSVFPLAPSSKSTSGGTAALGCLVKDYFPEPVTVSWNSGALTSGVHTFPAVLQSSGLYSLSSVVTVPSSSLGTQTYICNVNHKPSNTKVDKKVEPKSCDKTHTCPPCPAPELLGDDSVFLFPPKPKDTLMISRTPEVTCVVVDVGDEDGEVKFNWYVDGVEVHNAKTKPREEQDNSTYRVVSVLTVLHQDWLNGKEYKCKVSNKALPRPIEKTISKAKGQPREPQVYTLPPSRDELTKNQVSLTCLVKGFYPSDIAVEWESNGQPENNYKTTPPVLDSDGSFFLYSKLTVDKSRWQQGNVFSCSVMHEALHNHYTQESLSLSP
light: not shown
notes: Alterations in EU numbering, introduced into IL6R-B3
With B6, the Kd was determined as 0.85 µM with FcγRIIa type R and 0.02 µM with FcγRIIb.

B7: IL6R-BP188/IL6R-L (antibody, human IgG1, kappa)
heavy: QVQLQESGPGLVKPSETLSLTCAVSGHSISHDHAWSWVRQPPGEGLEWIGFISYSGITNYNPSLQGRVTISRDNSKNTLYLQMNSLRAEDTAVYYCARSLARTTAMDYWGEGTLVTVSSASTKGPSVFPLAPSSKSTSGGTAALGCLVKDYFPEPVTVSWNSGALTSGVHTFPAVLQSSGLYSLSSVVTVPSSSLGTQTYICNVNHKPSNTKVDKKVEPKSCDKTHTCPPCPAPDLLGDDSVFLFPPKPKDTLMISRTPEVTCVVVDVSDEDGEVKFNWYVDGVEVHNAKTKPREEQYNSTYRVVSVLTVLHQDWLNGKEYKCKVSNKALPKPIEKTISKAKGQPREPQVYTLPPSRDELTKNQVSLTCLVKGFYPSDIAVEWESNGQPENNYKTTPPVLDSDGSFFLYSKLTVDKSRWQQGNVFSCSVMHEALHNHYTQESLSLSP
light: not shown
In the case of B7, the figures for the relative binding activity in test [1] and in test [2] were 179 relative (IL6R-BF648/IL6R-L = 100) and 74 relative (IL6R-BF648/IL6R-L = 100), respectively.

B8: IL6R-BP480/IL6R-L (antibody, human IgG1, kappa)
heavy: QVQLQESGPGLVKPSETLSLTCAVSGHSISHDHAWSWVRQPPGEGLEWIGFISYSGITNYNPSLQGRVTISRDNSKNTLYLQMNSLRAEDTAVYYCARSLARTTAMDYWGEGTLVTVSSASTKGPSVFPLAPSSKSTSGGTAALGCLVKDYFPEPVTVSWNSGALTSGVHTFPAVLQSSGLYSLSSVVTVPSSSLGTQTYICNVNHKPSNTKVDKKVEPKSCDKTHTCPPCPAPDLLGDDSVFLFPPKPKDTLMISRTPEVTCVVVDLSEDDGEVKFNWYVDGVEVHNAKTKPREEQYNSTYRVVSVLTVLHQDWLNGKEYKCKVSNKALPAPIEKTISKAKGQPREPQVYTLPPSRDELTKNQVSLTCLVKGFYPSDIAVEWESNGQPENNYKTTPPVLDSDGSFFLYSKLTVDKSRWQQGNVFSCSVMHEALHNHYTQESLSLSP
light: not shown
notes: as for B6
With B8, the Kd with FcγRIIa type R is 6.3 µM; in the test with FcγRIIb, 0.2 µM.

B9: IL6R-BP435/IL6R-L (antibody, human IgG1, kappa)
heavy: QVQLQESGPGLVKPSETLSLTCAVSGHSISHDHAWSWVRQPPGEGLEWIGFISYSGITNYNPSLQGRVTISRDNSKNTLYLQMNSLRAEDTAVYYCARSLARTTAMDYWGEGTLVTVSSASTKGPSVFPLAPSSKSTSGGTAALGCLVKDYFPEPVTVSWNSGALTSGVHTFPAVLQSSGLYSLSSVVTVPSSSLGTQTYICNVNHKPSNTKVDKKVEPKSCDKTHTCPPCPAPDLLGDDSVFLFPPKPKDTLMISRTPEVTCVVVDVSDEDGEVKFNWYVDGVEVHNAKTKPREEQDNSTYRVVSVLTVLHQDWLNGKEYKCKVSNAALPRPTEKTISKAKGQPREPQVYTLPPSRDELTKNQVSLTCLVKGFYPSDIAVEWESNGQPENNYKTTPPVLDSDGSFFLYSKLTVDKSRWQQGNVFSCSVMHEALHNHYTQESLSLSP
light: not shown
notes: as for B6
As for B9, in the test with FcγRIa, the Kd was 0.001 µM.

B10: IL6R-BP426/IL6R-L (antibody, human IgG1, kappa)
heavy: QVQLQESGPGLVKPSETLSLTCAVSGHSISHDHAWSWVRQPPGEGLEWIGFISYSGITNYNPSLQGRVTISRDNSKNTLYLQMNSLRAEDTAVYYCARSLARTTAMDYWGEGTLVTVSSASTKGPSVFPLAPSSKSTSGGTAALGCLVKDYFPEPVTVSWNSGALTSGVHTFPAVLQSSGLYSLSSVVTVPSSSLGTQTYICNVNHKPSNTKVDKKVEPKSCDKTHTCPPCPAPDLLGDDSVFLFPPKPKDTLMISRTPEVTCVVVDVAEDDGEVKFNWYVDGVEVHNAKTKPREEQYNSTYRVVSVLTVLHQDWLNGKEYKCKVSNKALPRPIEKTISKAKGQPREPQVYTLPPSRDELTKNQVSLTCLVKGFYPSDIAVEWESNGQPENNYKTTPPVLDSDGSFFLYSKLTVDKSRWQQGNVFSCSVMHEALHNHYTQESLSLSP
light: not shown
notes: as for B6
The molecule B10 had a Kd in the test with FcγRIa of 0.001 µM.

For the origin of these results see patent US20210261648A1 (published 2021).
